# Results taken from article PMC11143359 (2024).
# B1: Lag3-Myc, full-length (FL), in HEK293FT cells [not stated] / human FLAG-APLP1, full length [human] (parent complex)
# chain 1: GPGKELPVVWAQEGAPVHLPCSLKSPNLDPNFLRRGGVIWQHQPDSGQPTPIPALDLHQGMPSPRQPAPGRYTVLSVAPGGLRSGRQPLHPHVQLEERGLQRGDFSLWLRPALRTDAGEYHATVRLPNRALSCSLRLRVGQASMIASPSGVLKLSDWVLLNCSFSRPDRPVSVHWFQGQNRVPVYNSPRHFLAETFLLLPQVSPLDSGTWGCVLTYRDGFNVSITYNLKVLGLEPVAPLTVYAAEGSRVELPCHLPPGVGTPSLLIAKWTPPGGGPELPVAGKSGNFTLHLEAVGLAQAGTYTCSIHLQGQQLNATVTLAVITVTPKSFGLPGSRGKLLCEVTPASGKERFVWRPLNNLSRSCPGPVLEIQEARLLAERWQCQLYEGQRLLGATVYAAESSSGAHSARRISGDLKGGHLVLVLILGALSLFLLVAGAFGFHWWRKQLLLRRFSALEHGIQPFPAQRKIEELERELETEMGQEPEPEPEPQLEPEPRQL
# chain 2: SLAGGSPGAAEAPGSAQVAGLCGRLTLHRDLRTGRWEPDPQRSRRCLRDPQRVLEYCRQMYPELQIARVEQATQAIPMERWCGGSRSGSCAHPHHQVVPFRCLPGEFVSEALLVPEGCRFLHQERMDQCESSTRRHQEAQEACSSQGLILHGSGMLLPCGSDRFRGVEYVCCPPPGTPDPSGTAVGDPSTRSWPPGSRVEGAEDEEEEESFPQPVDDYFVEPPQAEEEEETVPPPSSHTLAVVGKVTPTPRPTDGVDIYFGMPGEISEHEGFLRAKMDLEERRMRQINEVMREWAMADNQSKNLPKADRQALNEHFQSILQTLEEQVSGERQRLVETHATRVIALINDQRRAALEGFLAALQADPPQAERVLLALRRYLRAEQKEQRHTLRHYQHVAAVDPEKAQQMRFQVHTHLQVIEERVNQSLGLLDQNPHLAQELRPQIQELLHSEHLGPSELEAPAPGGSSEDKGGLQPPDSKDDTPMTLPKGSTEQDAASPEKEKMNPLEQYERKVNASVPRGFPFHSSEIQRDELAPAGTGVSREAVSGLLIMGAGGGSLIVLSMLLLRRKKPYGAISHGVVEVDPMLTLEEQQLRELQRHGYENPTYRFLEERP
# Variants of: B1
# Test: co-IP (IP: FLAG, blot Myc-Lag3), band intensity quantified; read off a plot
row,Variant,response [AU]
1,"chain 2 L25A, chain 2 T26A, chain 2 H28A, chain 2 D30A, chain 2 C46A, chain 2 L47A, chain 2 Q71A, chain 2 T73A, chain 2 I76A",~20
